Measurements from US20210238260.
Changes are numbered by the printed parent chain. Numbers in names are those of the source.

B1: FIXa-Y155F/R338E/T343R/R403E (protein)
chain 1: YNSGKLEEFVQGNLERECMEEKCSFEEAREVFENTERTTEFWKQYVDGDQCESNPCLNGGSCKDDINSYECWCPFGFEGKNCELDVTCNIKNGRCEQFCKNSADNKVVCSCTEGYRLAENQKSCEPAVPFPCGRVSVSQTSKLTR
chain 2: VVGGEDAKPGQFPWQVVLNGKVDAFCGGSIVNEKWIVTAAHCVETGVKITVVAGEHNIEETEHTEQKRNVIRIIPHHNYNAAINKYNHDIALLELDEPLVLNSYVTPICIADKEYTNIFLKFGSGYVSGWGRVFHKGRSALVLQYLRVPLVDRATCLESTKFRIYNNMFCAGFHEGGRDSCQGDSGGPHVTEVEGTSFLTGIISWGEECAMKGKYGIYTKVSEYVNWIKEKTKLT
B2: FIXa-D104N/K106S/R318Y/R338E/R403E/E410N (mature FIX numbering) (protein)
chain 1: B1 chain 1 with D104N, K106S
chain 2: B1 chain 2 with R138Y, R163T, E230N
B3: FIXa-Y155F/K247N/N249S/R318Y/R403E (protein)
chain 1: B1 chain 1
chain 2: B1 chain 2 with K67N, N69S, R138Y, E158R, R163T
B4: FIXa-R318Y/R338E/R403E/E410N (mature FIX numbering) (protein)
chain 1: B1 chain 1
chain 2: B1 chain 2 with R138Y, R163T, E230N
B5: FIXa-A103N/N105S/Y155F/R318Y/R338E/R403E/E410N (mature FIX numbering) (protein)
chain 1: B1 chain 1 with A103N, N105S
chain 2: B1 chain 2 with R138Y, R163T, E230N
B6: FIXa-A103N/N105S/R318Y/R338E/R403E/E410N (mature FIX numbering) (protein)
chain 1: B1 chain 1 with A103N, N105S
chain 2: B1 chain 2 with R138Y, R163T, E230N
B7: FIXa-K228N/R338E/R403E (mature FIX numbering) (protein)
chain 1: B1 chain 1
chain 2: B1 chain 2 with K48N, R163T
B8: FIXa-R338E/T343R/R403E (protein)
chain 1: B1 chain 1
chain 2: B1 chain 2
B9: FIXa R338E/T343R/R403E/E410N (protein)
chain 1: B1 chain 1
chain 2: B1 chain 2 with E230N
B10: FIXa R318Y/R338E/T343R/E410N (protein)
chain 1: B1 chain 1
chain 2: B1 chain 2 with R138Y, E223R, E230N
B11: FIXa-Y155F/N260S/R338E/T343R/R403E (protein)
chain 1: B1 chain 1
chain 2: B1 chain 2 with N80S
B12: FIXa-Y155F/R318Y/R338E/R403E/E410N (mature FIX numbering) (protein)
chain 1: B1 chain 1
chain 2: B1 chain 2 with R138Y, R163T, E230N
B13: FIXa-K247N/N249S/R338E/T343R/R403E/E410N (protein)
chain 1: B1 chain 1
chain 2: B1 chain 2 with K67N, N69S, E230N
B14: FIXa-R318Y/R403E/E410N (mature FIX numbering) (protein)
chain 1: B1 chain 1
chain 2: B1 chain 2 with R138Y, E158R, R163T, E230N
B15: FIXa-K228N/R318Y/E410N (mature FIX numbering) (protein)
chain 1: B1 chain 1
chain 2: B1 chain 2 with K48N, R138Y, E158R, R163T, E223R, E230N
B16: FIXa-R338E/T343R/E410N (protein)
chain 1: B1 chain 1
chain 2: B1 chain 2 with E223R, E230N
B17: FIXa-D203N/F205T/R318Y/E410N (mature FIX numbering) (protein)
chain 1: B1 chain 1
chain 2: B1 chain 2 with D23N, F25T, R138Y, E158R, R163T, E223R, E230N
B18: FIXa-Y155F/K247N/N249S/T343R/R403E (protein)
chain 1: B1 chain 1
chain 2: B1 chain 2 with K67N, N69S, E158R
B19: FIXa-Y155F/K247N/N249S/R318Y/R338E/T343R/E410N (protein)
chain 1: B1 chain 1
chain 2: B1 chain 2 with K67N, N69S, R138Y, E223R, E230N
B20: FIXa-Y155F/K247N/N249S/R338E/R403E (protein)
chain 1: B1 chain 1
chain 2: B1 chain 2 with K67N, N69S, R163T
B21: FIXa-Y155F/R338E/T343R/R403E/E410S (protein)
chain 1: B1 chain 1
chain 2: B1 chain 2 with E230S
B22: FIXa-Y155F/K247N/N249S/R318Y/E410N (protein)
chain 1: B1 chain 1
chain 2: B1 chain 2 with K67N, N69S, R138Y, E158R, R163T, E223R, E230N
B23: FIXa-D104N/K106S/Y155F/R318Y/R338E/R403E/E410N (mature FIX numbering) (protein)
chain 1: B1 chain 1 with D104N, K106S
chain 2: B1 chain 2 with R138Y, R163T, E230N
B24: FIXa Y155F/R318Y/T343R/R403E/E410N (protein)
chain 1: B1 chain 1
chain 2: B1 chain 2 with R138Y, E158R, E230N
B25: FIXa-Y155F/R318Y/R338E/E410N (mature FIX numbering) (protein)
chain 1: B1 chain 1
chain 2: B1 chain 2 with R138Y, R163T, E223R, E230N
B26: FIXa-Y155F/K247N/N249S/R318Y/R338E/T343R/R403E (protein)
chain 1: B1 chain 1
chain 2: B1 chain 2 with K67N, N69S, R138Y
B27: FIXa-Y155F/I251S/R338E/T343R/R403E (protein)
chain 1: B1 chain 1
chain 2: B1 chain 2 with I71S
B28: FIXa-R318Y/R338E/E410N (mature FIX numbering) (protein)
chain 1: B1 chain 1
chain 2: B1 chain 2 with R138Y, R163T, E223R, E230N
B29: FIXa-Y155F/K247N/N249S/R338E/T343R/R403E/E410N (protein)
chain 1: B1 chain 1
chain 2: B1 chain 2 with K67N, N69S, E230N
B30: FIXa-Y155F/K247N/N249S/R318Y/R338E (protein)
chain 1: B1 chain 1
chain 2: B1 chain 2 with K67N, N69S, R138Y, R163T, E223R
B31: FIXa-D104N/K106S/R318Y/R338E/E410N (mature FIX numbering) (protein)
chain 1: B1 chain 1 with D104N, K106S
chain 2: B1 chain 2 with R138Y, R163T, E223R, E230N
B32: FIXa-Y155F/K247N/N249S/R318Y/T343R (protein)
chain 1: B1 chain 1
chain 2: B1 chain 2 with K67N, N69S, R138Y, E158R, E223R
B33: FIXa-Y155F/K247N/N249S/R338E/T343R (protein)
chain 1: B1 chain 1
chain 2: B1 chain 2 with K67N, N69S, E223R
B34: FIXa Y155F/R318Y/R338E/T343R/E410N (protein)
chain 1: B1 chain 1
chain 2: B1 chain 2 with R138Y, E223R, E230N
B35: FIXa-K247N/N249S/R318Y/R338E/T343R/R403E (protein)
chain 1: B1 chain 1
chain 2: B1 chain 2 with K67N, N69S, R138Y
B36: FIXa-R318Y/R338E/T343R/R403E/E410S (protein)
chain 1: B1 chain 1
chain 2: B1 chain 2 with R138Y, E230S

Sequence of Factor X, P00742 (P00742 whole entry, looked up): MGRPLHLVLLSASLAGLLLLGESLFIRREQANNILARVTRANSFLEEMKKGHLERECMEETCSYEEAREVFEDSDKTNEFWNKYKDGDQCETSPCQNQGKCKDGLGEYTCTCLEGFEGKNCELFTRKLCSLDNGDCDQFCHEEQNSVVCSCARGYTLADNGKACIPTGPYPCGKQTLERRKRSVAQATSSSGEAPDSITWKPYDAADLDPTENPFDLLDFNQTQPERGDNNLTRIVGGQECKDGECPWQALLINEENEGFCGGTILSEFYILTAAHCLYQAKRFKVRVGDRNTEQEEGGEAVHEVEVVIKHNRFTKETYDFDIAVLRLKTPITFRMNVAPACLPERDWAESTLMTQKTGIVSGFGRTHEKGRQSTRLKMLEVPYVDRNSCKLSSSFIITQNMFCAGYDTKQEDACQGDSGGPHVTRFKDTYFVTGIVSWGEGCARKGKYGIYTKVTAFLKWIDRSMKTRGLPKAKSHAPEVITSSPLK
Sequence of Factor X (FX), P00742 (P00742 whole entry, looked up): as above

Protein	% of WT kcat/KM (Factor X, P00742)	kcat (Factor X, P00742)	kcat/KM (Factor X, P00742)	KM (Factor X (FX), P00742)	% of WT kcat/KM (Factor X (FX), P00742)	kcat/KM for FX activation (Xase: FVIIIa, PC/PS vesicles, Ca2+) (Factor X (FX), P00742)	KM (FX activation by FIXa in Xase complex with FVIIIa, PC/PS vesicles, Ca2+) (Factor X, P00742)	KM (Factor X, P00742)
B1	429%	5.2 s⁻¹	2e+08 M⁻¹ s⁻¹	0.0289 µM	–	–	–	–
B2	377%	–	1.7e+08 M⁻¹ s⁻¹	–	–	–	–	–
B3	–	1.7 s⁻¹	–	0.109 µM	34%	1.6e+07 M⁻¹ s⁻¹	–	–
B4	262%	–	1.2e+08 M⁻¹ s⁻¹	–	–	–	–	–
B5	283%	–	1.3e+08 M⁻¹ s⁻¹	–	–	–	–	–
B6	327%	–	1.5e+08 M⁻¹ s⁻¹	–	–	–	–	–
B7	108%	–	4.8e+07 M⁻¹ s⁻¹	–	–	–	–	–
B8	663%	6.9 s⁻¹	3.1e+08 M⁻¹ s⁻¹	0.0235 µM	–	–	–	–
B9	–	–	–	–	–	–	0.0347 µM	–
B10	–	–	–	–	–	–	0.0164 µM	–
B11	203%	6.4 s⁻¹	9.4e+07 M⁻¹ s⁻¹	0.0692 µM	–	–	–	–
B12	418%	–	1.9e+08 M⁻¹ s⁻¹	–	–	–	–	–
B13	–	10.8 s⁻¹	–	0.0251 µM	930%	4.3e+08 M⁻¹ s⁻¹	–	–
B14	59%	–	2.7e+07 M⁻¹ s⁻¹	–	–	–	–	–
B15	272%	–	1.2e+08 M⁻¹ s⁻¹	–	–	–	–	–
B16	–	–	–	–	–	–	–	0.0355 µM
B17	88%	–	3.9e+07 M⁻¹ s⁻¹	–	–	–	–	–
B18	184%	4.7 s⁻¹	8.5e+07 M⁻¹ s⁻¹	0.0596 µM	–	–	–	–

Protein	% of WT kcat/KM (Factor X, P00742)	kcat (Factor X, P00742)	kcat/KM (Factor X, P00742)	KM (Factor X (FX), P00742)	% of WT kcat/KM (Factor X (FX), P00742)	kcat/KM for FX activation (Xase: FVIIIa, PC/PS vesicles, Ca2+) (Factor X (FX), P00742)	KM (FX activation by FIXa in Xase complex with FVIIIa, PC/PS vesicles, Ca2+) (Factor X, P00742)	KM (Factor X, P00742)
B19	–	7.7 s⁻¹	–	0.0177 µM	1091%	5e+08 M⁻¹ s⁻¹	–	–
B20	–	5.3 s⁻¹	–	0.0409 µM	299%	1.4e+08 M⁻¹ s⁻¹	–	–
B21	629%	6.8 s⁻¹	2.9e+08 M⁻¹ s⁻¹	0.0239 µM	–	–	–	–
B22	–	3.4 s⁻¹	–	0.0488 µM	155%	7.2e+07 M⁻¹ s⁻¹	–	–
B23	394%	–	1.8e+08 M⁻¹ s⁻¹	–	–	–	–	–
B24	–	–	–	–	–	–	0.034 µM	–
B25	835%	–	3.7e+08 M⁻¹ s⁻¹	–	–	–	–	–
B26	630%	10.6 s⁻¹	2.9e+08 M⁻¹ s⁻¹	0.0365 µM	–	–	–	–
B27	651%	5.9 s⁻¹	3e+08 M⁻¹ s⁻¹	0.0196 µM	–	–	–	–
B28	770%	–	3.4e+08 M⁻¹ s⁻¹	–	–	–	–	–
B29	805%	9.8 s⁻¹	3.7e+08 M⁻¹ s⁻¹	0.0264 µM	–	–	–	–
B30	–	7.5 s⁻¹	–	0.0263 µM	632%	2.9e+08 M⁻¹ s⁻¹	–	–
B31	581%	–	2.6e+08 M⁻¹ s⁻¹	–	–	–	–	–
B32	–	10.3 s⁻¹	–	0.0421 µM	549%	2.5e+08 M⁻¹ s⁻¹	–	–
B33	–	10.6 s⁻¹	–	0.0153 µM	1579%	7.3e+08 M⁻¹ s⁻¹	–	–
B34	–	–	–	–	–	–	0.0256 µM	–
B35	886%	9.2 s⁻¹	4.1e+08 M⁻¹ s⁻¹	0.0284 µM	–	–	–	–
B36	962%	7.6 s⁻¹	4.4e+08 M⁻¹ s⁻¹	0.019 µM	–	–	–	–
